In US20150344570A1 (published 2015):

T1: FcγRIIb (human, UniProt P31994 43-217)
T1 construct: extracellular domain; also called FcgRIIb; CD32B
T1 sequence (looked up): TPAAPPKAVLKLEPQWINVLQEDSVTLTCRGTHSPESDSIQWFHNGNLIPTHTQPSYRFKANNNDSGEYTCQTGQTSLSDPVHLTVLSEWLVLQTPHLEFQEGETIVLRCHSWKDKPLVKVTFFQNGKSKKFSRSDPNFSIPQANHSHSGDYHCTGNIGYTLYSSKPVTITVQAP


Columns and labels:
[1] = biological target: T2, FcγRIa (human, UniProt P12314 16-292); test: ratio of He/Con_1a to He/Con_2b (FcγRIa over FcγRIIb), SPR
T2 construct: extracellular domain; also called FcgRI; CD64
Procedure: (§1) The heterodimerized antibodies He Abs in which one of the H chains was introduced with an alteration were assayed for their binding activities to each activating FcγR and inhibitory FcγR according to the method described in Example 4. […] The activating FcγRs in FIGS. 26, 27, 28, and 29 are FcγRIa, FcγRIIa (R), FcγRIIa (H), and FcγRIIIa, respectively.
(§2) Analysis of interaction between objective antibody and the FcγR was carried out using Biacore T100 (GE Healthcare). HBS-EP+ (GE Healthcare) was used as the running buffer, and the measurement temperature was set to 25° C. Chips produced by immobilizing the antigen peptide by the amine coupling method to a Series S Sencor Chip CM5 (GE Healthcare), or alternatively, chips produced by allowing preliminarily biotinylated antigen peptides to interact with and immobilize onto a Series S Sensor Chip SA (certified) (GE Healthcare) were used. Antibodies of interest were captured onto an antigen peptide-immobilized chip, and allowed to interact to each FcγR diluted with running buffer. To regenerate and repeatedly use the chip, the antibodies captured on the chip were washed off by reacting 10 mM glycine-HCl, pH 1.5.

[2] = biological target: T1, FcγRIIb; test: SPR (Biacore), captured antibody, soluble FcγR; relative to GpH7-A5/GpH7-B3/GpL16-k0 = 100
Procedure: as §1, §2

[3] = biological target: T2, FcγRIa; test: as above
Procedure: as §1, §2

T2 sequence (P12314 16-292): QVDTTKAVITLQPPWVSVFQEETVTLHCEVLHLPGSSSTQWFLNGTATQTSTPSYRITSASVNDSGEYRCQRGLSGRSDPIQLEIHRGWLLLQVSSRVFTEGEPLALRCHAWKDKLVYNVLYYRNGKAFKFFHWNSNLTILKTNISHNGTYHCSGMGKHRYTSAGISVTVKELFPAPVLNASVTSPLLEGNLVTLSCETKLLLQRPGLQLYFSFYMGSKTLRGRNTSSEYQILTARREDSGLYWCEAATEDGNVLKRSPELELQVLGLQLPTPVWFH

| Binder | He_1a/2b (Ia/IIb) [1] | He/Con_2b [2] | He/Con_1a [3] |
| --- | --- | --- | --- |
| GpH7-A5/GpH7-B3 variant I336_19Q/GpL16-k0 (antibody, human IgG1, kappa, He Ab; mutation in the GpH7-B3 chain only; also called He Ab) heavy 1: not shown heavy 2: not shown light: DIVMTQSPLSLPVTPGEPASISCQASESLVHSNRNTYLHWYLQKPGQSPQLLIYKVSNRFSGVPDRFSGSGSGTDFTLKISRVEAEDVGVYYCSQNTHVPPTFGQGTKVEIERTVAAPSVFIFPPSDEQLKSGTASVVCLLNNFYPREAKVQWKVDNALQSGNSQESVTEQDSKDSTYSLSSTLTLSKADYEKHKVYACEVTHQGLSSPVTKSFNRGEC | 1.78 | 58.2 % of control | 104 % of control |
| GpH7-A5/GpH7-B3 variant P329_06M/GpL16-k0 (antibody, human IgG1, kappa, He Ab; mutation in the GpH7-B3 chain only; also called He Ab) heavy 1: not shown heavy 2: not shown light: DIVMTQSPLSLPVTPGEPASISCQASESLVHSNRNTYLHWYLQKPGQSPQLLIYKVSNRFSGVPDRFSGSGSGTDFTLKISRVEAEDVGVYYCSQNTHVPPTFGQGTKVEIERTVAAPSVFIFPPSDEQLKSGTASVVCLLNNFYPREAKVQWKVDNALQSGNSQESVTEQDSKDSTYSLSSTLTLSKADYEKHKVYACEVTHQGLSSPVTKSFNRGEC | 2.94 | 29.1 % of control | 85.3 % of control |
| GpH7-A5/GpH7-B3 variant P329_10E/GpL16-k0 (antibody, human IgG1, kappa, He Ab; mutation in the GpH7-B3 chain only; also called He Ab) heavy 1: not shown heavy 2: not shown light: DIVMTQSPLSLPVTPGEPASISCQASESLVHSNRNTYLHWYLQKPGQSPQLLIYKVSNRFSGVPDRFSGSGSGTDFTLKISRVEAEDVGVYYCSQNTHVPPTFGQGTKVEIERTVAAPSVFIFPPSDEQLKSGTASVVCLLNNFYPREAKVQWKVDNALQSGNSQESVTEQDSKDSTYSLSSTLTLSKADYEKHKVYACEVTHQGLSSPVTKSFNRGEC | 1.5 | 52.7 % of control | 78.8 % of control |
| GpH7-A5/GpH7-B3 variant L328_05P/GpL16-k0 (antibody, human IgG1, kappa, He Ab; mutation in the GpH7-B3 chain only; also called He Ab) heavy 1: not shown heavy 2: not shown light: DIVMTQSPLSLPVTPGEPASISCQASESLVHSNRNTYLHWYLQKPGQSPQLLIYKVSNRFSGVPDRFSGSGSGTDFTLKISRVEAEDVGVYYCSQNTHVPPTFGQGTKVEIERTVAAPSVFIFPPSDEQLKSGTASVVCLLNNFYPREAKVQWKVDNALQSGNSQESVTEQDSKDSTYSLSSTLTLSKADYEKHKVYACEVTHQGLSSPVTKSFNRGEC | 1.42 | 65.1 % of control | 92.2 % of control |
| GpH7-A5/GpH7-B3 variant P329_09D/GpL16-k0 (antibody, human IgG1, kappa, He Ab; mutation in the GpH7-B3 chain only; also called He Ab) heavy 1: not shown heavy 2: not shown light: DIVMTQSPLSLPVTPGEPASISCQASESLVHSNRNTYLHWYLQKPGQSPQLLIYKVSNRFSGVPDRFSGSGSGTDFTLKISRVEAEDVGVYYCSQNTHVPPTFGQGTKVEIERTVAAPSVFIFPPSDEQLKSGTASVVCLLNNFYPREAKVQWKVDNALQSGNSQESVTEQDSKDSTYSLSSTLTLSKADYEKHKVYACEVTHQGLSSPVTKSFNRGEC | 1.45 | 53.5 % of control | 77.6 % of control |
| GpH7-A5/GpH7-B3 variant P329_07I/GpL16-k0 (antibody, human IgG1, kappa, He Ab; mutation in the GpH7-B3 chain only; also called He Ab) heavy 1: not shown heavy 2: not shown light: DIVMTQSPLSLPVTPGEPASISCQASESLVHSNRNTYLHWYLQKPGQSPQLLIYKVSNRFSGVPDRFSGSGSGTDFTLKISRVEAEDVGVYYCSQNTHVPPTFGQGTKVEIERTVAAPSVFIFPPSDEQLKSGTASVVCLLNNFYPREAKVQWKVDNALQSGNSQESVTEQDSKDSTYSLSSTLTLSKADYEKHKVYACEVTHQGLSSPVTKSFNRGEC | 2.72 | 34.6 % of control | 94.1 % of control |
| GpH7-A5/GpH7-B3 variant L328_18N/GpL16-k0 (antibody, human IgG1, kappa, He Ab; mutation in the GpH7-B3 chain only; also called He Ab) heavy 1: not shown heavy 2: not shown light: DIVMTQSPLSLPVTPGEPASISCQASESLVHSNRNTYLHWYLQKPGQSPQLLIYKVSNRFSGVPDRFSGSGSGTDFTLKISRVEAEDVGVYYCSQNTHVPPTFGQGTKVEIERTVAAPSVFIFPPSDEQLKSGTASVVCLLNNFYPREAKVQWKVDNALQSGNSQESVTEQDSKDSTYSLSSTLTLSKADYEKHKVYACEVTHQGLSSPVTKSFNRGEC | 1.22 | 80.8 % of control | 98.7 % of control |
| GpH7-A5/GpH7-B3 variant P329_11K/GpL16-k0 (antibody, human IgG1, kappa, He Ab; mutation in the GpH7-B3 chain only; also called He Ab) heavy 1: not shown heavy 2: not shown light: DIVMTQSPLSLPVTPGEPASISCQASESLVHSNRNTYLHWYLQKPGQSPQLLIYKVSNRFSGVPDRFSGSGSGTDFTLKISRVEAEDVGVYYCSQNTHVPPTFGQGTKVEIERTVAAPSVFIFPPSDEQLKSGTASVVCLLNNFYPREAKVQWKVDNALQSGNSQESVTEQDSKDSTYSLSSTLTLSKADYEKHKVYACEVTHQGLSSPVTKSFNRGEC | 4.17 | 16.9 % of control | 70.4 % of control |
| GpH7-A5/GpH7-B3 variant P329_08L/GpL16-k0 (antibody, human IgG1, kappa, He Ab; mutation in the GpH7-B3 chain only; also called He Ab) heavy 1: not shown heavy 2: not shown light: DIVMTQSPLSLPVTPGEPASISCQASESLVHSNRNTYLHWYLQKPGQSPQLLIYKVSNRFSGVPDRFSGSGSGTDFTLKISRVEAEDVGVYYCSQNTHVPPTFGQGTKVEIERTVAAPSVFIFPPSDEQLKSGTASVVCLLNNFYPREAKVQWKVDNALQSGNSQESVTEQDSKDSTYSLSSTLTLSKADYEKHKVYACEVTHQGLSSPVTKSFNRGEC | 2.95 | 29.1 % of control | 85.7 % of control |
| GpH7-A5/GpH7-B3 variant P329_03V/GpL16-k0 (antibody, human IgG1, kappa, He Ab; mutation in the GpH7-B3 chain only; also called He Ab) heavy 1: not shown heavy 2: not shown light: DIVMTQSPLSLPVTPGEPASISCQASESLVHSNRNTYLHWYLQKPGQSPQLLIYKVSNRFSGVPDRFSGSGSGTDFTLKISRVEAEDVGVYYCSQNTHVPPTFGQGTKVEIERTVAAPSVFIFPPSDEQLKSGTASVVCLLNNFYPREAKVQWKVDNALQSGNSQESVTEQDSKDSTYSLSSTLTLSKADYEKHKVYACEVTHQGLSSPVTKSFNRGEC | 2.53 | 38.5 % of control | 97.4 % of control |
| GpH7-A5/GpH7-B3 variant P329_04F/GpL16-k0 (antibody, human IgG1, kappa, He Ab; mutation in the GpH7-B3 chain only; also called He Ab) heavy 1: not shown heavy 2: not shown light: DIVMTQSPLSLPVTPGEPASISCQASESLVHSNRNTYLHWYLQKPGQSPQLLIYKVSNRFSGVPDRFSGSGSGTDFTLKISRVEAEDVGVYYCSQNTHVPPTFGQGTKVEIERTVAAPSVFIFPPSDEQLKSGTASVVCLLNNFYPREAKVQWKVDNALQSGNSQESVTEQDSKDSTYSLSSTLTLSKADYEKHKVYACEVTHQGLSSPVTKSFNRGEC | 2.88 | 32.2 % of control | 92.7 % of control |
| GpH7-A5/GpH7-B3 variant I336_20W/GpL16-k0 (antibody, human IgG1, kappa, He Ab; mutation in the GpH7-B3 chain only; also called He Ab) heavy 1: not shown heavy 2: not shown light: DIVMTQSPLSLPVTPGEPASISCQASESLVHSNRNTYLHWYLQKPGQSPQLLIYKVSNRFSGVPDRFSGSGSGTDFTLKISRVEAEDVGVYYCSQNTHVPPTFGQGTKVEIERTVAAPSVFIFPPSDEQLKSGTASVVCLLNNFYPREAKVQWKVDNALQSGNSQESVTEQDSKDSTYSLSSTLTLSKADYEKHKVYACEVTHQGLSSPVTKSFNRGEC | 4.28 | 20.3 % of control | 86.7 % of control |
| GpH7-A5/GpH7-B3 variant P329_02A/GpL16-k0 (antibody, human IgG1, kappa, He Ab; mutation in the GpH7-B3 chain only; also called He Ab) heavy 1: not shown heavy 2: not shown light: DIVMTQSPLSLPVTPGEPASISCQASESLVHSNRNTYLHWYLQKPGQSPQLLIYKVSNRFSGVPDRFSGSGSGTDFTLKISRVEAEDVGVYYCSQNTHVPPTFGQGTKVEIERTVAAPSVFIFPPSDEQLKSGTASVVCLLNNFYPREAKVQWKVDNALQSGNSQESVTEQDSKDSTYSLSSTLTLSKADYEKHKVYACEVTHQGLSSPVTKSFNRGEC | 2.52 | 40.5 % of control | 102 % of control |
| GpH7-A5/GpH7-B3 variant L328_01G/GpL16-k0 (antibody, human IgG1, kappa, He Ab; mutation in the GpH7-B3 chain only; also called He Ab) heavy 1: not shown heavy 2: not shown light: DIVMTQSPLSLPVTPGEPASISCQASESLVHSNRNTYLHWYLQKPGQSPQLLIYKVSNRFSGVPDRFSGSGSGTDFTLKISRVEAEDVGVYYCSQNTHVPPTFGQGTKVEIERTVAAPSVFIFPPSDEQLKSGTASVVCLLNNFYPREAKVQWKVDNALQSGNSQESVTEQDSKDSTYSLSSTLTLSKADYEKHKVYACEVTHQGLSSPVTKSFNRGEC | 1.21 | 80.2 % of control | 97.2 % of control |
